According to patent US20160208233A1 (Harvard, published 2016):
Numbering of substitutions follows the chain as printed.

Experiments:
[1] = biological target: T1, Gly-Gly-Gly-COOH
T1 chain: GGG

[2] = biological target: T2, Abz-LPETGK(Dnp)-CONH2
T2 chain: LPETGK

[3] = biological target: T3, Abz-LAETGK(Dnp)-CONH2
T3 chain: LAETGK

B1: eSrtA(2A-5) (protein)
chain: QAKPQIPKDKSKVAGYIEIPDADIKEPVYPGPATREQLNHGVSFHEENESLDDQNISIAGHTFIDRPNYQFTNLKAAKIGSMVYFKVGNETRKYKMTSIRNVRPTAVEVLDEQKGKDKQLTLVTCDDYNEETGVWETRKIFVATEVK
Km, GGG (uM); with LAETG peptide [1]: 2810 µM
Km, LxExG [2]: 4900 µM
kcat/Km (Hz/M) [2]: 28.1 Hz/M
Km, LxExG [3]: 433 µM
increase in kcat/Km, LAETG substrate against LPETG substrate [3]: from ˜40-fold (2Ar4) to ˜125-fold (2Ar5) increase in kcat/Km
increased affinity for the LAETG substrate as compared to the LPETG substrate [3]: from ˜61 (2A.6c) to ˜116fold (2Ar5)
kcat/Km (Hz/M) [3]: 3260 Hz/M
specificity (relative cat. Efficiency, fold), LAETG over LPETG [3]: 116 fold

B2: 2A.6C (protein)
chain: B1 chain with H40R, I79P, K93I, N101K
Km, GGG (uM); with LAETG peptide [1]: 642 µM
Km, LxExG [2]: 1980 µM
kcat/Km (Hz/M) [2]: 38.7 Hz/M
Km, LxExG [3]: 343 µM
increased affinity for the LAETG substrate as compared to the LPETG substrate [3]: from ˜61 (2A.6c) to ˜116fold (2Ar5)
kcat/Km (Hz/M) [3]: 2380 Hz/M
specificity (relative cat. Efficiency, fold), LAETG over LPETG [3]: 61.6 fold
